Data taken from the DeepSol protein solubility set.

Experiment: soluble on expression in E. coli; label from the status in PepcDB or PDB records

Row | Sequence | soluble on expression in E. coli
1 | MGSDKIHHHHHHMTNLVTLENVSVAFGQRRVLSDISLALTPGKILTLLGPNGAGKSTLVRVVLGLVAPTEGVIKRDARLRIGYVPQKLHLDATLPLTVSRFLRLRPGTRKDDILPALKRVQAGHLIDAPMQKLSGGETQRVLLARALLNRPQLLVLDEPTQGVDVNGQVALYDLINQLRHELDCAVLMVSHDLHLVMAKTDEVLCLNQHICCSGAPEVVSMHPEFISMFGPRGAEQLGIYRHHHNHRHDLQGRIVLRRGNSR | not soluble
2 | MGSDKIHHHHHHVNVPTEFDINVLRADFDKTRLPRSRAQQMPGKMYTSSEVAALEKKRIFMDTWLCAGREEEIANPGDYMTREIASEPFVLSRDKEGKVHAFLNMCLHRGVPVAEGSGNARGFSCPYHAWYYDLQGTLLAAPLMEQSEANLKNCRLKPMRLALWRGWIFVSFNPDAMPFETFIAPFEENLWWFKSDECRLSERVVLQIDCNWKLLVENLIDIYHVPVLHKASFGGFLKSDKEKLSFNLLPRGGWYYEQKARPHSKSGQQLFPTLPWLEGMDSGTSMKAGIFPNLNLSLRFDSLRMWQVWPTSTGKSELHLYSLFMPAAFEDPDFQKHYEEYKSFLLGAIVNEDGPMVVKLQQAMGSEFYAPGPLSHLEGAVHHLMNYYLDVVSGEDRND | not soluble
3 | PNKFCPGCGHGIVNRIIAEVIEEHGYEKNHVLTLGVGCVCNMNFSWNGDKMQTAHGRASSTAIGVKVALPDTLVMTYQGDGDAYVIGLSETLNTAYRNHNVTVFVINNNNFAMTGGQMSWTTMPGQVTTTSVNGRDIKTTGSPLKVPEMVANFFDVAYVARGSVHSPKEIINLKKYIKNAIEAQLNGEGYSLVEILAPCPTNWGVSLEKSIKWMEEEIVPYYALGEFKQRDG | not soluble
4 | MGEQSHEKDHDEAHSYNPFVRSAVEYDADTRLQMAENAASARKLFVSSALKDIIVNPENFYHDFQQSAQMAEDANQRRQVSYNTKREAHIHQLKAQGLPLPSNIPMIEINPTRVTLNMEFESQYYSLMTSDNGDHENVASIMAETNTLIQLPDRSVGGTTPDPFAQQVTITGYFGDVDRARMLMRRNCHFTVFMALSKMKMPLHELQAHVRQNPIQNVEMSFVDAPEKNGIVTTYLRITAREKNQHELIEAAKRLNEILFRESPAPENNFTLHFTLSTYYVDQVLGSSSTAQLMPVIERETTTIISYPCYNNRNETRGNIYEIKVVGNIDNVLKARRYIMDLLPISMCFNIKNTDMAEPSRVSDRNIHMIIDESGIILKMTPSVYEPADLLSGEVPLNCASLRSKEFNIKKLYTAYQKVLSKKFDFIAPQPNDYDNSIWHHSLPANFLKNFNMPCRGELSDGSNGRRHRSSSIASSRSKHSYMSKGKQFSESSGGPSRSHTRVSSFSENSSTVPIMQFPTPHFAPPMLTPHHHMLKYVYLQQHQQAQTFLKGAAGLHPGTHIMFPPPIIVDGSFVSALPFADPVVFDGFPYVHGLFPVNEAEQHRNHRESSPSLRSTQEIRKPSRNMGNRPSSSTGSYYPSTTPRQRVYEQVREDDLRSHIGSRRTSVNGDDQNVESMHDQGYERQYPRQHQRLQKDDQQRWKTGSRGDIHSSRTINVHRDVRNSNEYDFHVGNSGPAKRSPSLEQVQLQMTHHLKLKSNDVDLDHEKLYMHESPHNDSDTTVSASGFGNDLMDGDFVQRFLSNANINESGRRPRTVSCFTEKDGQSARYIDSDGAYSVVDHASTHQSRSYDSFRKVGDNGVTKTILEPRARVEKDYGKISLEHKTKYSNEYGDEEKSAENDTSSLGSRQYRIDPMKRNIYILRNRDFSNSFFYFLHQFSLYMNPICAYRIRLHQFLSYKPSICLSRISLYPRDLYD | not soluble
5 | MGSDKIHHHHHHMKLDDCQLLIHVHKAGTMRGAARSLHLSQPAISQRLKQMEDLWGGAIFIRTHKKLLLTPLGEKVLTFAQETLWRTERLREELEQMKGSVSGRLSLGISSVVSHYLIPPLLEKYTKAYPRVNIELISTTSDQIRRTFSSYHVAIFRGDRLPEQASHLLLADPLYLVFDKDIPIEKRPLIQWKSDPSLEALIQAWMRSVTSFTFRGHVSVDQIETCKQLMLRGVGAAILPEMAIKDVSDQCFHKLPLQLDNQPLERQTWVLYEEEALSLPQVEAFLQLLPLK | not soluble
6 | MGESPSNPSGLTFRLADDRKLKAIYVPAAEKASVNLGFLRHALVAGGFADLFIYDHALVELIKRYNAATQEFVYDVGEQRDGTYIIRNTPDNIEAYLTLTRPYGGKPVCPEQLHQALREQGVIYGVLTDEIETAIEAGEATDLLIARGIPPEQGTDAELVSLIPQARDRQPELQDNETVDYRDRGEISSVKAGDPLMRRIPPTPGKPGTNIMGKEVPAPPAKDLKFTPNLPGTTFAPDDPDLLIAAIDGQPVLVANGVMIEPVIKIKNVDLSSGNISFKGSVDISGDITPGMTVRATGDITVGGVVEGATLEAEGDIVVRGGIIGPGENRDPKGKSGQERALIRAKGNIEALFVENSLVEAGGMIQIAGFAMQSNLVAGTQVVVGQEGTTKGHIIGGSCQAVSRIQAVTLGSHAGVHTTVSVGVNPHVKEKLSTVKLKIAEAERELDELTKRLDYFASTPLKGSPEQINETRQAKDKLVTALSELKGERKRLEKRLEQASDALIRVERAVLSGVVISIGTKTLEVKDDMEGGITFRLEDDAIVASQLEHHHHHH | not soluble
7 | MPPFMSGLRAVSSLLSCRNAISRKLVSRSGIPRGSFVSDQIRRFGSLSGVERCSSNWLMSNDDARVSFRRLPGSVSLLQRRHFLGCGDGEEGGGELSKIYEERRVLGYTPEQMFNVVAAVDLYHGFVPWCQRSEVLKEYPDGSFDAELEIGFKFLVESYISHVESERPKWIKTTARDTGLFDHLINLWQFKPGPIPGTCDLHFHVDFKFNSPLYRQVASMFFKEVASRLVGAFSDRCRLVYGPGVRVDENAYEQRA | soluble
8 | MSLESRPLHVVLGNEACDLDSTVSALALAFYLAKTTEAEEVFVPVLNIKRSELPLRGDIVFFLQKVHIPESILIFRDEIDLHALYQAGQLTLILVDHHILSKSDTALEEAVAEVLDHRPIEPKHCPPCHVSVELVGSCATLVTERILQGAPEILDRQTAALLHGTIILDCVNMDLKIGKATPKDSKYVEKLEALFPDLPKRNDIFDSLQKAKFDVSGLTTEQMLRKDQKTIYRQGVKVAISAIYMDLEAFLQRSNLLADLHAFCQAHSYDVLVAMTIFFNTHNEPVRQLAIFCPHVALQTTICEVLERSHSPPLKLTPASSTHPNLHAYLQGNTQVSRKKLLPLLQEALSAYFDSMKIPSGQPETADVSREQVDKELDRASNSLISGLSQDEGHHHHHH | not soluble
9 | GAMAEEATFTANFKDTDLKSFIETVGANLNKTIIMGPGVQGAVSIRTMTPLNERQYYQLFLNLLEAQGYAVVPMENDVLKVVKSSAAKVEPLPLVGEGSDNYAGDEMVTKVVPVRNVSVRELAPILRQMIDSAGSGNVVNYDPSNVIMLTGRASVVERLTEVIQRVDHAGNRTEEVIPLDNASASEIARVLESLTKNSGENQPATLKSQIVADERTNSVIVSGDPATRDKMRRLIRRLDSE | soluble
10 | AAKRMKKRIKSATFFTTLLDFSQPGEVGAYINDTIISAIETQNNAKGYMDGRSLSVTFSLLRENSLYWNYYVDNYLKGNSPVDFDLLYWNSDSTNVSAASHNFLLRELYLENKLVQDKGVKIGGVWIDLNKIKIPSYFVSTKEDHIALWQGTYRGALHTGGNKTFVLGESGHIAGIVNHPAKNKYGYWLNDTLDDS | not soluble
11 | MYVALWYKHGKPIHGRSWNNGGVVECSFPYKEAELTTKQQLEGQIQVLQYVGDHNNQGFWYEWIKYKDRIEKIDDKHQLVRCGDSFPIFWKRKEGNLLGYVDNKTEEGWFSFNGKVIKQVGPQLNDMYIITRNCVGGPPYCECENCPKLPPPPPIPPPGPPPPRVMHDEWIDIREGDPWPTRKLVKALDKSLDTLPGVSADQYVALWYMQGEPVMGRVWNEGGKVAANFSWFNNEYCKNVGSIQLLVRLGPHVVGYEYGWIPFPEAANFDAGKIWKPVHVNNHKGDISVGVVNLPGGKQILAKVDVRNESYGYGYQGKEHSARGPACASSVTVLCRKALPGYQLDG | not soluble
12 | MTYSHEVEHMCVVKKGPNHGPAPIPEEGKWVKSKEIVDISGLTHGIGWCAPQQGACKLTLNVKEGVIQEALVETIGCSGMTHSAAMAAEILPGKTILEALNTDLVCDAINTAMRELFLQIVYGRTQSAFSEGGLIIGAGLEDLGKGLRSQVGTLYGTLAKGPRYLEMAEGYIKNIFLDKNDEICGYEFVHMGKFMDEIKKGTDANEALKKVTGTYGRVTAEQGAVKHIDPRHE | not soluble
13 | MMAKKPPKPAPRRIFQERLKITALPLYFEGFLLIKRSGYREYEHYWTELRGTTLFFYTDKKSIIYVDKLDIVDLTCLTEQNSTEKNCAKFTLVLPKEEVQLKTENTESGEEWRGFILTVTELSVPQNVSLLPGQVIKLHEVLEREKKRRIETEQSTSVEKEKEPTEDYVDVLNPMPACFYTVSRKEATEMLQKNPSLGNMILRPGSDSRNYSITIRQEIDIPRIKHYKVMSVGQNYTIELEKPVTLPNLFSVIDYFVKETRGNLRPFICSTDENTGQEPSMEGRSEKLKKNPHIA | soluble
14 | MRAKKRKFLQKEELSKLLQSLDMSQIGFGWFVMLVAKTGMRYAEALAITPADFDWTAQTISINKTWDYKYNKGFAKTKTLSSVRTIKIDWQIVGQFKPLIKDFPEDEPIFVEKFGDGTYKRQFNSTINNFLAVKCNETGITQISFHALRHTHASVLLAEGVSIHTISARLGHADVGVTQETYALEHHHHHH | soluble
15 | MGSDKIHHHHHHMQNLHIFGEQKKTDWVIFENLEKVESKTLTEEGSAIRLNSGKYRKLKAISSVDPDVLYSTCKQFLPLNELEVLNKWEPSWGKVREDILNSKVELWNQCMHESACQYAPEVVSTKAYWKSVQQHIWFCTSSSELKEDIRTCFMLDFYITVQKEGRTKQSNLTRSWLSPINVQEEDLQELVLYTANAAMEKLDARPFPSGSYALILGPLAAPGIFHEVVGHGLEADIASIPQSAFHQRLGAMVGCEKVTIIDDPTKEGLPGSYSLDDEGTIAQQTTLIEKGRVVNYLSHLHTGHPTNGHGRVINYQHLPLVRMSNTFLLPGTDDPEEMVSDTEVGLYVKKAINGDVNMITGEFEIHVAEGYLIEKGQITSPILPTTLKGDGQKLLQSIDRVGNDFAIHSEVRGGCGKLGQSPLPVSAGSPTVRVLDWYVKGADR | not soluble
16 | MISGLSHITLIVKDLNKTTAFLQNIFNAEEIYSSGDKTFSLSKEKFFLIAGLWICIMEGDSLQERTYNHIAFQIQSEEVDEYTERIKALGVEMKPERPRVQGEGRSIYFYDFDNHLFELHAGTLEQRLKRYHE | soluble
17 | GSSGSSGMQLEIQVALNFIISYLYNKLPRRRVNIFGEELERLLKKKYEGHWYPEKPYKGSGFRCIHIGEKVDPVIEQASKESGLDIDDVRGNLPQDLSVWIDPFEVSYQIGEKGPVKVLYVDDNSGPSSG | soluble
18 | MNAATLVDTHAVDTALQEAFEAAPEGFALFDAEDRCVIWNARYGELWSKWGVTLAVGATFESLLLAGLAAGRFPEANGDRAAWLAHQLGRRKLDRIEEIREEFGEYLRFESRRTPAGGLITTCANLTNLRRREAQALAARSFLDTIVENTPAMLFVKDGDTGAFLLVNRAAENQLGVPRAELLGKSDYDFFPKEQADAFAADDRRVIASGKLVTIDEEPLDTPHNGRRWLQTRKIAIPGEDGRRHLLVICEDITERKAGAAALAEALQKAEAGSVAKSEFLANMSHEIRTPLNGVIGMAEVLSRTALDDAQREMMEVILNSGRALNLLLSDILDLSKIEAGGLELSRDPLDLREAITAAVAVFKAVAESKGLVFRLTFADDFHDHVLGDALRVRQIVANLTSNAVKFTTAGSVIIEARTLVAEDGRIDLTVSVQDTGEGFDEDSADRLFERFQQADGSVTRKVGGTGLGLPIARRLARLMDGEISCVAHPGEGATFVFEALFLADGQRTPAASADPAGELALDRRLRVLLAEDHPTNQKVIGLMLADAADVTVAEDGQAAVEAFEKHAYDVVLMDTQMPVMDGLAAIAEIRRREREAQARRTPIISLTANAMPHQVRACLEAGADLHLAKPVSIQGLFATLGAALETRPGGEGLEHHHHHH | not soluble
